Data: patent publication US20250243277A1 (AVACTA LIFE SCIENCES, published 2025)

B1: Clone 148 (designed binder)
chain: MIPGGLSEAKPATPEIQEIVDKVKPQLEEKTGETYGKLEAVQYKTQVVRDYDPFPYTGTNYYIKVRAGDNKYMHLKVFKSLWRGPGPYAIEDLVLTGYQVDKNKDDELTGF
notes: His-tagged
B2: Clone 150 (designed binder)
chain: MIPGGLSEAKPATPEIQEIVDKVKPQLEEKTGETYGKLEAVQYKTQVVREVGLWRFQGTNYYIKVRAGDNKYMHLKVFKSLYIGYAGDAQEDLVLTGYQVDKNKDDELTGF
notes: His-tagged
B3: Clone 145 (designed binder)
chain: MIPGGLSEAKPATPEIQEIVDKVKPQLEEKTGETYGKLEAVQYKTQVVYKNVGPWVNGTNYYIKVRAGDNKYMHLKVFKSLYRTNRGHEREDLVLTGYQVDKNKDDELTGF
notes: His-tagged
B4: Clone 167 (designed binder)
chain: MIPGGLSEAKPATPEIQEIVDKVKPQLEEKTGETYGKLEAVQYKTQVVYRNKQWYNEGTNYYIKVRAGDNKYMHLKVFKSLKIGYLEFVLEDLVLTGYQVDKNKDDELTGF
notes: His-tagged
B5: Clone 208 (designed binder)
chain: MIPGGLSEAKPATPEIQEIVDKVKPQLEEKTGETYGKLEAVQYKTQVVQWKKTQYFFGTNYYIKVRAGDNKYMHLKVFKSLRIGYLEFEIEDLVLTGYQVDKNKDDELTGF
notes: His-tagged
B6: Clone 158 (designed binder)
chain: MIPGGLSEAKPATPEIQEIVDKVKPQLEEKTGETYGKLEAVQYKTQVVDNVANIVPHGTNYYIKVRAGDNKYMHLKVFKSLGWNYEHKWPEDLVLTGYQVDKNKDDELTGF
notes: His-tagged
B7: Clone 152 (designed binder)
chain: MIPGGLSEAKPATPEIQEIVDKVKPQLEEKTGETYGKLEAVQYKTQVVRAQLRPWVAGTNYYIKVRAGDNKYMHLKVFKSLGWNEEARPPEDLVLTGYQVDKNKDDELTGF
notes: His-tagged
B8: Clone 153 (designed binder)
chain: MIPGGLSEAKPATPEIQEIVDKVKPQLEEKTGETYGKLEAVQYKTQVVYPWSWNGHYGTNYYIKVRAGDNKYMHLKVFKSLIKYPFARAEEDLVLTGYQVDKNKDDELTGF
notes: His-tagged
B9: Clone 223 (designed binder)
chain: MIPGGLSEAKPATPEIQEIVDKVKPQLEEKTGETYGKLEAVQYKTQVVFPWDQENYYGTNYYIKVRAGDNKYMHLKVFKSLIKEPFIKNVEDLVLTGYQVDKNKDDELTGF
notes: His-tagged
B10: Clone 155 (designed binder)
chain: MIPGGLSEAKPATPEIQEIVDKVKPQLEEKTGETYGKLEAVQYKTQVVWRTGQKWQVGTNYYIKVRAGDNKYMHLKVFKSLAGHYEVHIGEDLVLTGYQVDKNKDDELTGF
notes: His-tagged
B11: Clone 170 (designed binder)
chain: MIPGGLSEAKPATPEIQEIVDKVKPQLEEKTGETYGKLEAVQYKTQVVHQFQEIKWFGTNYYIKVRAGDNKYMHLKVFKSLFHRTPGSTTEDLVLTGYQVDKNKDDELTGF
notes: His-tagged
B12: Clone 49 (designed binder)
chain: MIPGGLSEAKPATPEIQEIVDKVKPQLEEKTGETYGKLEAVQYKTQVVKYYAIFDYKGTNYYIKVRAGDNKYMHLKVFKSLFKEKVRNSIEDLVLTGYQVDKNKDDELTGF
notes: His-tagged
B13: Clone 81 (designed binder)
chain: MIPGGLSEAKPATPEIQEIVDKVKPQLEEKTGETYGKLEAVQYKTQVVKAYVIWSYKGTNYYIKVRAGDNKYMHLKVFKSLFYGEPRGKGEDLVLTGYQVDKNKDDELTGF
notes: His-tagged
B14: Clone 68 (designed binder)
chain: MIPGGLSEAKPATPEIQEIVDKVKPQLEEKTGETYGKLEAVQYKTQVVRVQGLWNFQGTNYYIKVRAGDNKYMHLKVFKSLGHHGDHEKWEDLVLTGYQVDKNKDDELTGF
notes: His-tagged
B15: Clone 164 (designed binder)
chain: MIPGGLSEAKPATPEIQEIVDKVKPQLEEKTGETYGKLEAVQYKTQVVRIWGFWAFQGTNYYIKVRAGDNKYMHLKVFKSLGHESGQNLWEDLVLTGYQVDKNKDDELTGF
notes: His-tagged
B16: Clone 166 (designed binder)
chain: MIPGGLSEAKPATPEIQEIVDKVKPQLEEKTGETYGKLEAVQYKTQVVVAGLKWHWEGTNYYIKVRAGDNKYMHLKVFKSLIYASQYDYREDLVLTGYQVDKNKDDELTGF
notes: His-tagged
B17: Clone 180 (designed binder)
chain: MIPGGLSEAKPATPEIQEIVDKVKPQLEEKTGETYGKLEAVQYKTQVVLQGSRLPIEGTNYYIKVRAGDNKYMHLKVFKSLGWHNVTLPPEDLVLTGYQVDKNKDDELTGF
notes: His-tagged
B18: Clone 173 (designed binder)
chain: MIPGGLSEAKPATPEIQEIVDKVKPQLEEKTGETYGKLEAVQYKTQVVDWPSHAKFWGTNYYIKVRAGDNKYMHLKVFKSLFLPDKDDPFEDLVLTGYQVDKNKDDELTGF
notes: His-tagged
B19: Clone 169 (designed binder)
chain: MIPGGLSEAKPATPEIQEIVDKVKPQLEEKTGETYGKLEAVQYKTQVVYANIGPWLYGTNYYIKVRAGDNKYMHLKVFKSLFKHRQQLHYTEDLVLTGYQVDKNKDDELTGF
notes: His-tagged
B20: Clone 147 (designed binder)
chain: MIPGGLSEAKPATPEIQEIVDKVKPQLEEKTGETYGKLEAVQYKTQVVVHITVEWEGTNYYIKVRAGDNKYMHLKVFKSLIYQRHTQSREDLVLTGYQVDKNKDDELTGF
notes: His-tagged
B21: Clone 146 (designed binder)
chain: MIPGGLSEAKPATPEIQEIVDKVKPQLEEKTGETYGKLEAVQYKTQVVSKRSAWHWTGTNYYIKVRAGDNKYMHLKVFKSLFWNAPDDRQEDLVLTGYQVDKNKDDELTGF
notes: His-tagged
B22: Clone 17 (designed binder)
chain: MIPGGLSEAKPATPEIQEIVDKVKPQLEEKTGETYGKLEAVQYKTQVVIVYTIWNYVGTNYYIKVRAGDNKYMHLKVFKSLTPQTETEHEEDLVLTGYQVDKNKDDELTGF
notes: His-tagged
B23: Clone 172 (designed binder)
chain: MIPGGLSEAKPATPEIQEIVDKVKPQLEEKTGETYGKLEAVQYKTQVVSVFQYTYKFGTNYYIKVRAGDNKYMHLKVFKSLNNKPPHNDLEDLVLTGYQVDKNKDDELTGF
notes: His-tagged
B24: Clone 165 (designed binder)
chain: MIPGGLSEAKPATPEIQEIVDKVKPQLEEKTGETYGKLEAVQYKTQVVNEAESSRFLGTNYYIKVRAGDNKYMHLKVFKSLHDFTLKWKFEDLVLTGYQVDKNKDDELTGF
notes: His-tagged
B25: Clone 160 (designed binder)
chain: MIPGGLSEAKPATPEIQEIVDKVKPQLEEKTGETYGKLEAVQYKTQVVGPWYFGSAWGTNYYIKVRAGDNKYMHLKVFKSLWENFHKLEKEDLVLTGYQVDKNKDDELTGF
notes: His-tagged
B26: Clone 156 (designed binder)
chain: MIPGGLSEAKPATPEIQEIVDKVKPQLEEKTGETYGKLEAVQYKTQVVIQQLYKQTWGTNYYIKVRAGDNKYMHLKVFKSLDYQHWPYDFEDLVLTGYQVDKNKDDELTGF
notes: His-tagged
B27: Clone 163 (designed binder)
chain: MIPGGLSEAKPATPEIQEIVDKVKPQLEEKTGETYGKLEAVQYKTQVVISASEIRWYGTNYYIKVRAGDNKYMHLKVFKSLKAFANDYYKEDLVLTGYQVDKNKDDELTGF
notes: His-tagged
B28: Clone 171 (designed binder)
chain: MIPGGLSEAKPATPEIQEIVDKVKPQLEEKTGETYGKLEAVQYKTQVVIDHQNHPTEGTNYYIKVRAGDNKYMHLKVFKSLWPWLHSTEQEDLVLTGYQVDKNKDDELTGF
notes: His-tagged
B29: Clone 18 (designed binder)
chain: MIPGGLSEAKPATPEIQEIVDKVKPQLEEKTGETYGKLEAVQYKTQVVEAHQDLHFWGTNYYIKVRAGDNKYMHLKVFKSLLTEHNKKHQERHLDHEDLVLTGYQVDKNKDDELTGF
notes: His-tagged
B30: Clone 157 (designed binder)
chain: MIPGGLSEAKPATPEIQEIVDKVKPQLEEKTGETYGKLEAVQYKTQVVIYYPIWDFHGTNYYIKVRAGDNKYMHLKVFKSLFWGDLKTEDLVLTGYQVDKNKDDELTGF
notes: His-tagged
B31: Clone 159 (designed binder)
chain: MIPGGLSEAKPATPEIQEIVDKVKPQLEEKTGETYGKLEAVQYKTQVVHVHWAWNYLGTNYYIKVRAGDNKYMHLKVFKSLRNFYTFPHEEDLVLTGYQVDKNKDDELTGF
notes: His-tagged
B32: Clone 151 (designed binder)
chain: MIPGGLSEAKPATPEIQEIVDKVKPQLEEKTGETYGKLEAVQYKTQVVWEEVNWRNWGTNYYIKVRAGDNKYMHLKVFKSLVPIHDHLRNEDLVLTGYQVDKNKDDELTGF
notes: His-tagged
B33: Clone 177 (designed binder)
chain: MIPGGLSEAKPATPEIQEIVDKVKPQLEEKTGETYGKLEAVQYKTQVVISEDSWWPHGTNYYIKVRAGDNKYMHLKVFKSLNWFHQPWQREDLVLTGYQVDKNKDDELTGF
notes: His-tagged
B34: Clone 192 (designed binder)
chain: MIPGGLSEAKPATPEIQEIVDKVKPQLEEKTGETYGKLEAVQYKTQVVTENNSWWPIGTNYYIKVRAGDNKYMHLKVFKSLNWFSDEAPYEDLVLTGYQVDKNKDDELTGF
notes: His-tagged
B35: Clone 178 (designed binder)
chain: MIPGGLSEAKPATPEIQEIVDKVKPQLEEKTGETYGKLEAVQYKTQVVDHLPHAKYWGTNYYIKVRAGDNKYMHLKVFKSLWYQPRWKVEEDLVLTGYQVDKNKDDELTGF
notes: His-tagged

The binders below were run against T1, human PD-L1-Fc (R&D Systems) (human, UniProt Q9NZQ7 19-239) (assay: soluble Affimer ELISA).
T1 construct: Bought from R&D Systems; Biotinylated in-house for the phage selection; also called huPD-L1-Fc; human PD-L1-Fc antigen; not shown: Fc part of the bought fusion
T1 sequence (Q9NZQ7 19-239 limits assumed): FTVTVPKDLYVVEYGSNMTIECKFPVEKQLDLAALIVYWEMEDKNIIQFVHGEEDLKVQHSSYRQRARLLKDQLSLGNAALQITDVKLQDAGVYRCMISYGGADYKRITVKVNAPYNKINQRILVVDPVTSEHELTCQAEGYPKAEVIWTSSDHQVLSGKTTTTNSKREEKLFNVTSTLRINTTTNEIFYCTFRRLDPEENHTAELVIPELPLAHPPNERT

Binding result, binds:
B1, B2, B3, B4, B5, B6, B7, B8, B9, B10, B11, B12, B13, B14, B15, B16, B17, B18, B19, B20, B21, B22, B23, B24, B25, B26, B27, B28, B29, B30, B31, B32, B33, B34, B35
